# Data reported in US12065507B2 (priority 2020, dated 2024).
# Where two headings read alike, the source gives them in different places.
# Assays:
# [1] = collected from the references cited; read-out: Activities (Kd), Morphine; cited from earlier work
# [2] = cited from earlier work
# [3] = mice; cited from earlier work
# [4] = Competitive binding of [H^3]-morphine against meperidine; conditions: read-out: Kd, meperidine; from IC50 against 2 nM [H^3]-morphine
# [5] = read-out: Kd, morphine; 2 nM [H^3]-morphine, room temperature, 60 minutes, pH 7.4
# Experimental: The binding constant of the antibody with [H^3]-morphine were tested using liquid scintillation counting. Briefly, 2 nM [H^3]-morphine was incubated with different concentration of antibody at room temperature for 60 minutes. The total volume of mixture was 100 and pH was 7.4.
# [6] = Competitive binding of [H^3]-morphine against oxycodone; conditions: read-out: Kd, oxycodone; from IC50 against 2 nM [H^3]-morphine
# [7] = Competitive binding of [H^3]-morphine against naloxone
# [8] = Competitive binding of [H^3]-morphine against naltrexone
# [9] = collected from the references cited, read-out: Activities (Kd), 6-MAM
# [10] = 10 μM competing drug, 60 nM antibody, 2 nM [H^3]-morphine
Molecule,Kd [1] [nM],"Kd [2, 9] [nM]",other results
"Ab17: known 6-MAM-specific mAb 6-MAM-214; heavy chain SEQ ID NO: 29, light chain SEQ ID NO: 55 (antibody, V domains shown, Ab17 - Heavy chain; Ab17 - Light chain) VH: EVQLVESGGGLVQPGRSLRLSCAASGFSFGDYAIHMVRQAPGKGLEWVSGISWDSYTTGYADSVKGRFTVSRDNAKNSLYLQMNSLRPEDTAVYYCAKAPSPRRVIIEYFDSDYWGQGTSLTVSS VL: QSALTQPASVSGAPGQTVSISCTGWSSNIGAGYDVHWYQQLPGTAPKLLISHNTNRPSGVPDRFSGSKSGTSASLAITGLQAEDEADYYCQSYDSTLGVVVEGGGTICLTVL",> 10000,300,"Kd ([2]; literature value, read-out: affinity for 6-MAM): 300 nM; Effect on acute heroin effects [3]: able to reduce the acute heroin effects in mice"
"Ab22: known anti-6-MAM antibody 6-MAM-108; heavy chain SEQ ID NO: 34, light chain SEQ ID NO: 60 (antibody, V domains shown, Ab22 - Heavy chain; Ab22 - Light chain) VH: EVQLVESGGGLVQPGRSLRLSCAASGFSFGDYAIHMVRQAPGKGLEWVSGISWDSYTTGYADSVKGRFTVSRDNAKNSLYLQMNSLRPEDTAVYYCAKAPSPRRVIIEYFDSDYWGQGTSLTVSS VL: QSVLTQPPSVSGAPGQRVTISCTGSSSNIGAGYDVHWYQQLPGTAPKLLWGNSNRPSGVPDRFSGSKSGTSASLAITGLQAEDEADYYCQSYDSSLSGVVFGGGTKLTVL",> 10000,170,–
"Ab19 (antibody, V domains shown, Ab19 - Heavy chain; Ab19 - Light chain) VH: EVQLVESGGGLVQPGRSLRLSCAASGFSFGDYARIMVRQAPGKGLEWVSGISWDSYTTGYADSVKGRFTVSRDNAICNSLYLQMNSLRPEDTAVYYCAKAPSPRRVIIEYFDSDYWGGTSLTVSS VL: QSVLTQPPSVSGAPGQRVTISCTGSSSNIGAGYDVHWYQQLPGTAPKLLIYGNSNRPSGVPDRFSGSKSGTSASLAITGLQAEDEADYYCQSYDSSLRGVVFGGGTKLTVL",≥ 10000,160,–
"Ab21: known anti-6-MAM antibody 6-MAM-103; heavy chain SEQ ID NO: 33, light chain SEQ ID NO: 59 (antibody, V domains shown, Ab21 - Heavy chain; Ab21 - Light chain) VH: EVQLVESGGGLVQPGRSLRLSCAASGFSFGDYAIHMVRQAPGKGLEWVSGISWDSYTTGYADSVKGRFTVSRDNAICNSLYLQMNSLRPEDTAVYYCAKAPSPRRVIIEYFDSDYWGQGTSLTVSS VL: QSALTQPASVSGAPGQRVTISCTGSSSNIGAGYDVHWYQQLPGTAPKLLIYGNSNRPSGVPDRFSGSKSGTSASLAITGLQAEDEADYYCQSYDSSLSGVVFGGGTKLTVL",> 10000,100,–
"Ab24: known anti-6-MAM antibody 6-MAM-120; heavy chain SEQ ID NO: 36, light chain SEQ ID NO: 62 (antibody, V domains shown, Ab24 - Heavy chain; Ab24 - Light chain) VH: EVQLVESGGGLVQPGRSLRLSCAASGFTFGDYAIHMVRQAPGKGLEWVAGISWDSYTTGYADSVKGRFTVSRDNAKNSLYLQMNSLRPEDTAVYYCAICAPSPRRVIIEYFQYDYWGQGTSLTVSS VL: QSALTQPASVSGAPGQRVTISCTGSSSNIGAGYDVHWYQQLPGTAPKLLIYGNSNRPSGVPDRFSGSKSGTSASLAITGLQAEDEADYYCQSYDSSLSGVVFGGGTKLTVL",> 10000,250,–
"Ab20: known anti-6-MAM antibody 6-MAM-102; heavy chain SEQ ID NO: 32, light chain SEQ ID NO: 58 (antibody, V domains shown, Ab20 - Heavy chain; Ab20 - Light chain) VH: EVQLVESGGGLVQPGRSLRLSCAASGFSFGDYAIHMVRQAPGKGLEWVSGISWDSYTTGYADSVKGRFTVSRDNAKNSLYLQMNSLRPEDTAVYYCAKAPSPRRVHEYFDSDYWGQGTSLTVSS VL: QSALTQPASVSGAPGQRVTMSCTGSSSNIGAGYDVHWYQQLPGTAPKLLIFGNTNRPSGVPDRFSASKSGTSASLAITGLQAEDEADYYCQSYDNSLSGVVFGGGTKLTVL",> 10000,170,–
"UK6Mab02: fully humanized antibody (H1L3) designed from Ab13, with human IgG1 heavy and kappa light constant regions (antibody, V domains shown, H1 (UK6Mab02) Heavy Chain; L3 (UK6Mab02) - Light chain) VH: EVQLVQSGAEVKKPGASVKISCKASGYTFTSYWIEWVKQAPGKGLEWIGEINPSGGSTIYAEKFQGRATFTADTSTSTAYMELSSLRSEDTAVYYCARWVLDYYGMDYWGQGTSLTVSS VL: QAVVTQEPSLTVSPGGTVTLTCGSSTGAVTSGNYANWVQQKPGQAFRGLIGGTNTRSSGVPDRFSGSLLGGKAALTISGAQPEDEAEYYCALWYSNKLVFGGGTKLTVL",–,–,"Kd [4]: 15700 nM; Kd [5]: 127 nM; Kd [6]: 6910 nM; Binding with naloxone in initial screening [7, 10]: did not show significant binding affinities; Kd ([7]; read-out: Kd, naloxone, from competition with 2 nM [H^3]-morphine): > 10000 nM; Binding with naltrexone in initial screening [8, 10]: did not show significant binding affinities; Kd ([8]; read-out: Kd, naltrexone, from competition with 2 nM [H^3]-morphine): > 10000 nM"
